Legend:
[1] = target: wild type mononucleosome (recombinant Xenopus laevis histone octamer on 601 DNA) (Xenopus laevis)
[2] = target: APM (acidic patch mutant) mononucleosome, H2A E61A, E64A, D90A, D92A (Xenopus laevis)
[3] = target: wild type mononucleosome (recombinant Xenopus laevis histone octamer on 601 DNA) (Xenopus laevis); remark: listed apart in the source

Substance	reduction of the rate constant of remodeling of WT nucleosomes by sub-saturating SNF2h, dose-dependent, up to 50 µM LANA peptide; the pair that is blocked: SNF2h and the nucleosome [1] [fold]	apparent Km (KM^app) of the gel remodeling rate against SNF2h concentration, 0/60 APM nucleosomes, cooperative binding model [2] [µM]	apparent Km (KM^app) of the gel remodeling rate against SNF2h concentration, 0/60 WT nucleosomes, cooperative binding model [3] [µM]
LANA peptide (from the latency associated nuclear antigen of Kaposi's sarcoma-associated herpesvirus)	200	–	–
SNF2h (human ISWI ATPase), purified from E. coli (from UniProt O60264 1-1052) (enzyme)	–	0.28	0.061

Source: article PMC5976439
